Laboratory results: patent US20250213684A1, “COMBINATION THERAPIES COMPRISING ANTIBODY MOLECULES TO TIM-3” (Novartis AG, priority 2015, published 2025)

Tests used:
[1] = biological target: huTIM-3/his (human) (UniProt Q8TDQ0); test: Biacore, 2nd antibody injection; 1st antibody (competitor) ABTIM3-hum11
[2] = biological target: huTIM-3/his (human) (UniProt Q8TDQ0); test: Biacore, 2nd antibody injection; 1st antibody (competitor) ABTIM3-hum21
[3] = biological target: huTIM-3/his (human) (UniProt Q8TDQ0); test: Biacore, 1st antibody injection on hTIM-3/his captured by anti-His antibody
[4] = biological target: huTIM-3/his (human) (UniProt Q8TDQ0); test: Biacore, 2nd antibody injection; 1st antibody (competitor) huIgG1
[5] = biological target: huTIM-3/his (human) (UniProt Q8TDQ0); test: Biacore, 2nd antibody injection; 1st antibody (competitor) ABTIM3-hum03

change in RU [1]: 3.8 RU | change in RU [2]: 4.5 RU | change in RU [3]: 0.27 RU | change in RU [4]: 3.6 RU | change in RU [5]: 4.5 RU
Substance: human IgG1 isotype control (antibody)
